biological target: mouse megalin (mouse, UniProt A2ARV4 26-4660); assay: cell-based or functional assay
Sequence (A2ARV4 26-4660 limits assumed): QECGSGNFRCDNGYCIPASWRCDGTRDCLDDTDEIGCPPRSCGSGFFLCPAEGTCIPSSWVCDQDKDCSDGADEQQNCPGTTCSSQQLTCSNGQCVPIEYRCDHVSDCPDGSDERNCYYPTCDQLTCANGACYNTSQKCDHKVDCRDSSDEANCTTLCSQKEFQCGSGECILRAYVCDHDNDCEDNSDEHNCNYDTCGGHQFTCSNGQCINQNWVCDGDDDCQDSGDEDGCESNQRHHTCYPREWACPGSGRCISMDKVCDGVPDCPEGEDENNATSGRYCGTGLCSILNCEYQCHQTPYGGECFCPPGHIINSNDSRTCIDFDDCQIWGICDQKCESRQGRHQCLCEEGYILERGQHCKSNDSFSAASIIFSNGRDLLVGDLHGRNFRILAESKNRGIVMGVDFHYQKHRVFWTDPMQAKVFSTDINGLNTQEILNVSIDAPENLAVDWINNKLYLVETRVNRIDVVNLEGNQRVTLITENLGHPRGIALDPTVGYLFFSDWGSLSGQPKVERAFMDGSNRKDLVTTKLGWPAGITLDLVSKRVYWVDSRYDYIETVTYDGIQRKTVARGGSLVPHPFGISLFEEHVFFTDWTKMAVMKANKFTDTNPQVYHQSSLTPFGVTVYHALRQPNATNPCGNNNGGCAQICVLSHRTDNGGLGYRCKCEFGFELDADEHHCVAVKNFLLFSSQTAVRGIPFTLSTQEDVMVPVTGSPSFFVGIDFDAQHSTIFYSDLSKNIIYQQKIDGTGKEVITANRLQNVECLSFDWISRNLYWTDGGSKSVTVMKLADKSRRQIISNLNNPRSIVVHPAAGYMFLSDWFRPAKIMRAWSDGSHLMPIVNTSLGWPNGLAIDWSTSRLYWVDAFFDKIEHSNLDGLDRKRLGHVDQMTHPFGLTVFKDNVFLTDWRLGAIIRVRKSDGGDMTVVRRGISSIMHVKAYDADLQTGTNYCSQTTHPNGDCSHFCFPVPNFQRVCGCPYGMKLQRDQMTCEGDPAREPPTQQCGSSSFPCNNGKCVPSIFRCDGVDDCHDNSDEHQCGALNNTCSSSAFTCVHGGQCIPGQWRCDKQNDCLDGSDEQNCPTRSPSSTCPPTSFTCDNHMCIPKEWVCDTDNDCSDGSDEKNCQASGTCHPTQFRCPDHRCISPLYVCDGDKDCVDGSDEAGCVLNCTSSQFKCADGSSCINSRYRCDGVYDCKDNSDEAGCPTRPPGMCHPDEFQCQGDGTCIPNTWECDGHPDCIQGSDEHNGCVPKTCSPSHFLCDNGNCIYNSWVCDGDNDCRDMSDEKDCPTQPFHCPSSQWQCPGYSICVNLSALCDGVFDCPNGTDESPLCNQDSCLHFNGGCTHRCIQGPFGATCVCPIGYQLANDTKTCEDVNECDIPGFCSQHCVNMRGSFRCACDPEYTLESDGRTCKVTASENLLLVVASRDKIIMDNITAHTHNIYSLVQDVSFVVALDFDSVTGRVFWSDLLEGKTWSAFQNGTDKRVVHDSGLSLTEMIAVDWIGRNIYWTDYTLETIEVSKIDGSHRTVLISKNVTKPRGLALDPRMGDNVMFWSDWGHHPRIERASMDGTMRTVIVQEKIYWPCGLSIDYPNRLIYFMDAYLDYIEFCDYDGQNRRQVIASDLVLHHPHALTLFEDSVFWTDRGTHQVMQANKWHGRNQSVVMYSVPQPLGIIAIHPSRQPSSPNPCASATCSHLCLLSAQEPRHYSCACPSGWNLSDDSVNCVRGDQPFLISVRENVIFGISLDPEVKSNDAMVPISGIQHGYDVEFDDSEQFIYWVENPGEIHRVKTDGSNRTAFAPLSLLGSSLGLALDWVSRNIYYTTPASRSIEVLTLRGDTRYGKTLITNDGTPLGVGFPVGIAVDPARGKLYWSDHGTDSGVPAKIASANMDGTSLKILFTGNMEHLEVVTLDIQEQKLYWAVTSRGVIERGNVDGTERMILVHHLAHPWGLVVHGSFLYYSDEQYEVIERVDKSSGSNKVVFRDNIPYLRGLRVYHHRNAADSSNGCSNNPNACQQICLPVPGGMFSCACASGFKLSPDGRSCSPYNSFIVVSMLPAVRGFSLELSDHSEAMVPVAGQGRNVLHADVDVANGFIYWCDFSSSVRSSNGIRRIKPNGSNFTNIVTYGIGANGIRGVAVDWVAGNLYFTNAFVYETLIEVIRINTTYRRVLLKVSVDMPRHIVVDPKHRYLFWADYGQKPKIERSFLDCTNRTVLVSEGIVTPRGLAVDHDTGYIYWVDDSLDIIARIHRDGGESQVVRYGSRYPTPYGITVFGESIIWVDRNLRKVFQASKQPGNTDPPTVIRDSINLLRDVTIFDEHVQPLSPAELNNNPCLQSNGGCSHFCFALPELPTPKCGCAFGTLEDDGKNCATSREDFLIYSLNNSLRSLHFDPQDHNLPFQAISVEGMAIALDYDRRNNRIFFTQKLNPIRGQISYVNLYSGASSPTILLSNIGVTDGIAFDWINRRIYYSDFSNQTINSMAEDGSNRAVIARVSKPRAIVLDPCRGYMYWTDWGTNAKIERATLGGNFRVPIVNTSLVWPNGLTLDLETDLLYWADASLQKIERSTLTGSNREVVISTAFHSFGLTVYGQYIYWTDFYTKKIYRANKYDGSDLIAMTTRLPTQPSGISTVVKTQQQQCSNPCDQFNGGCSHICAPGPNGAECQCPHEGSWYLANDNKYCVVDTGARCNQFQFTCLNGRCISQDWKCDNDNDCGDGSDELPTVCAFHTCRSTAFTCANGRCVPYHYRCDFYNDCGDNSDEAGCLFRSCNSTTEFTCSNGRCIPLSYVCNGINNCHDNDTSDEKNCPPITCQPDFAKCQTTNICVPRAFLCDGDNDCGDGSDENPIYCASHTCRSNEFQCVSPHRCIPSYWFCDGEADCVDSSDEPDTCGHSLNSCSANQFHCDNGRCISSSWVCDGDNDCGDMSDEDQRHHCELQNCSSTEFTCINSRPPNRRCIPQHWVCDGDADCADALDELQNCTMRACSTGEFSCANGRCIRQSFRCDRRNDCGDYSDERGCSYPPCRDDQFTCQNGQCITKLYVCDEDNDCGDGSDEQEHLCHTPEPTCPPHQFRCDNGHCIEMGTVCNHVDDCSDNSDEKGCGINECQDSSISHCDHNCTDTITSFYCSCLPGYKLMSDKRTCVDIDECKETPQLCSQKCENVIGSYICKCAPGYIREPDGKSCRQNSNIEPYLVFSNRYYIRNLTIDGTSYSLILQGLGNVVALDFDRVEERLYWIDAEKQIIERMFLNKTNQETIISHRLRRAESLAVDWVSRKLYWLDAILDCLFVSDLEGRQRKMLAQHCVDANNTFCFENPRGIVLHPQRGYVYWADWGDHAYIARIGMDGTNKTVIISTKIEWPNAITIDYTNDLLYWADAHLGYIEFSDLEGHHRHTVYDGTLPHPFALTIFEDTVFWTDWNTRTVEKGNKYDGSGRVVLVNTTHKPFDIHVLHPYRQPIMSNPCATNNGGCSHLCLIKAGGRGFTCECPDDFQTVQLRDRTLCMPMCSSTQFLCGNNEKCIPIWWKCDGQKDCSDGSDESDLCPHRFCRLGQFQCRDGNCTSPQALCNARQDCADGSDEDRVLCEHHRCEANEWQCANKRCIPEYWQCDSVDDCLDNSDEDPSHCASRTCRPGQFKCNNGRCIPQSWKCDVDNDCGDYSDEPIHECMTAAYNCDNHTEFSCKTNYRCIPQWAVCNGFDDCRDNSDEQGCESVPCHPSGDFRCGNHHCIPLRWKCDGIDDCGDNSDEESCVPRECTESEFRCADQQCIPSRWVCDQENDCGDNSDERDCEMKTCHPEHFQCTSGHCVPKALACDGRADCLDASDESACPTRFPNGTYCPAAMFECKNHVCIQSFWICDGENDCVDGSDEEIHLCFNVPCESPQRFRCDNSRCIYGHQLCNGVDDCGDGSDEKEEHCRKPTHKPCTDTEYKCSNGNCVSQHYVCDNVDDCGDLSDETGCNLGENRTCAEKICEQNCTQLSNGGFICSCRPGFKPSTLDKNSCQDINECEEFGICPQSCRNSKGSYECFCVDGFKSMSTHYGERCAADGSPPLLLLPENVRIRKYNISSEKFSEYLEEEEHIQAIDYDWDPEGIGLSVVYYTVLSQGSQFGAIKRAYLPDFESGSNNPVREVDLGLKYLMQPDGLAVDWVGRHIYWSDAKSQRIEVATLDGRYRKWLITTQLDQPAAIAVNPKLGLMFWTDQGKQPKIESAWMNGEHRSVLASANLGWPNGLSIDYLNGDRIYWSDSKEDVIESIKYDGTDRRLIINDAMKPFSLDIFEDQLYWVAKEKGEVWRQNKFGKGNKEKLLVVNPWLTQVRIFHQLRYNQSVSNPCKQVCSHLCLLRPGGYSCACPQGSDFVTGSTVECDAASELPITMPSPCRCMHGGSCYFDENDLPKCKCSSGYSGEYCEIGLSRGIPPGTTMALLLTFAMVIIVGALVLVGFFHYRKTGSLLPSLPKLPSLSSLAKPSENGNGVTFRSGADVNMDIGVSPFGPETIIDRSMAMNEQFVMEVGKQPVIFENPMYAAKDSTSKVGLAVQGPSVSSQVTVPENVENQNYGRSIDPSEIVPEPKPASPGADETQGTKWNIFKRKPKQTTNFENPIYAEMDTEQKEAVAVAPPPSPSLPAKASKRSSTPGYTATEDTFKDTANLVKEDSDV

| Binder | % of i.p. injected NGAL-enterochelin-55Fe3+ complex delivered to mouse urine after 3 hours (escape from renal reabsorption) [%] |
| --- | --- |
| I1 NGAL mutant (ligand) QDSTSDLIPAPPLSSVPLQQNFQDNQFQGKWYVVGLAGNAILREDKDPQKMYATIYELKEDKSYNVTSVLFRDDGCDYWIRTFVPGCQPGEFTLGNIKSYPGLTSYLVRVVSTNYNQHAMVFFKKVSQNQEYFKITLYGRTKELTSELKENFIRFSKSLGLPENHIVFPVPIDQCIDG | 6 |
| A2 NGAL mutant (ligand) QDSTSDLIPAPPLSSVPLQQNFQDNQFQGKWYVVGLAGNAILREDKDPQKMYATIYELKEDKSYNVTSVLFRKKKCDYWIRTFVPGCQPGEFTLGNIKSYPGLTSYLVRVVSTNYNQHAMVFFKKVSQNREYFKITLYGQTQELTSELKENFIRFSKSLGLPENHIVFPVPIDQCIDG | 0.18 |
| D1 NGAL mutant (ligand) QDSTSDLIPAPPLSKVPLQQNFQDNQFQGKWYVVGLAGNAILREDKDPQKMYATIYELKEDKSYNVTSVLFRDDGCDYWIRTFVPGCQPGEFTLGNIKSYPGLTSYLVRVVSTNYNQHAMVFFKKVSQNREYFKITLYGRTKELTSELKENFIRFSKSLGLPENHIVFPVPIDQCIDG | 0.1 |
| H2 NGAL mutant (ligand) QDSTSDLIPAPPLSSVPLQQNFQDNQFQGKWYVVGLAGNAILREDKDPQKMYATIYELKEDKSYNVTSVLFRKKKCDYWIRTFVPGCQPGEFTLGNIQSYPGLTSYLVRVVSTNYNQFAMVFFKKVSQNQEYFKITLYGRTKELTSELQENFIRFSKSLGLPENNIVFPVPIDQCIDG | 0.27 |
| K5 NGAL mutant (ligand) QDSTSDLIPAPPLSSVPLQQNFQDNQFQGKWYVVGLAGNAILREDEDPQKMYATIYELKEDKSYNVTSVLFRKKKCDYWIRTFVPGCQPGEFTLGNIQSYPGLTSYLVRVVSTNYNQFAMVFFKKVSQNQEYFKITLYGRTKELTSELQENFIRFSKSLGLPENNIVFPVPIDQCIDG | 2.9 |
| I3 NGAL mutant (ligand) QDSTSDLIPAPPLSKVPLQQNFQDNQFQGKWYVVGLAGNAILREDKDPQKMYATIYELKEDGSYNVTSVLFRDDGCDYWIRTFVPGCQPGEFTLGNIQSYPGLTSYLVRVVSTNYNQHAMVFFKKVSQNREYFKITLYGRTKELTSELKENFIRFSKSLGLPENHIVFPVPIDQCIDG | 6.9 |
| I5 NGAL mutant (ligand) QDSTSDLIPAPPLSSVPLQQNFQDNQFQGKWYVVGLAGNAILREDKDPQKMYATIYELKEDGSYNVTSVLFRDDGCDYWIRTFVPGCQPGEFTLGNIKSYPGLTSYLVRVVSTNYNQHAMVFFKKVSQNQEYFKITLYGRTKELTSELKENFIRFSKSLGLPENHIVFPVPIDQCIDG | 0.05 |
| C3 NGAL mutant (ligand) QDSTSDLIPAPPLSSVPLQQNFQDNQFQGKWYVVGLAGNAILREDKDPQTMYATIYELKEDKSYNVTSVLFQKKKCDYWIRTFVPGCQPGEFTLGNIKSYPGLTSYLVRVVSTNYNQHAMVFFKKVSQNREYFKITLYGRTKELTSELQENFIRFSQSLGLPENHIVFPVPIDQCIDG | 0.26 |
| B4 NGAL mutant (ligand) QDSTSDLIPAPPLSKVPLQQNFQDNQFQGKWYVVGLAGNAILREDEDPQKMYATIYELKEDKSYNVTSVLFRKKKCDYWIRTFVPGCQPGEFTLGNIQSYPGLTSYLVRVVSTNYNQHAMVFFKKVSQNREYFKITLYGRTKELTSELKENFIRFSKSLGLPENHIVFPVPIDQCIDG | 0.13 |
| K2 NGAL mutant (ligand) QDSTSDLIPAPPLSSVPLQQNFQDNQFQGKWYVVGLAGNAILREDKDPQKMYATIYELKEDKSYNVTSVLFRDDGCDYWIRTFVPGCQPGEFTLGNIQSYPGLTSYLVRVVSTNYNQFAMVFFKKVSQNQEYFKITLYGRTKELTSELQENFIRFSKSLGLPENNIVFPVPIDQCIDG | 9.3 |
| F2 NGAL mutant (ligand) QDSTSDLIPAPPLSKVPLQQNFQDNQFQGKWYVVGLAGNAILREDEDPQKMYATIYELQEDKSYNVTSVLFRKKKCDYWIRTFVPGCQPGEFTLGNIKSYPGLTSYLVRVVSTNYNQHAMVFFKKVSQNREYFKITLYGRTKELTSELKENFIRFSKSLGLPENHIVFPVPIDQCIDG | 0.11 |
| K3 NGAL mutant protein (ligand) QDSTSDLIPAPPLSSVPLQQNFQDNQFQGKWYVVGLAGNAILREDEDPQKMYATIYELKEDKSYNVTSVLFRDDGCDYWIRTFVPGCQPGEFTLGNIQSYPGLTSYLVRVVSTNYNQFAMVFFKKVSQNQEYFKITLYGRTKELTSELQENFIRFSKSLGLPENNIVFPVPIDQCIDG | 19.6 |
| G3 NGAL mutant (ligand) QDSTSDLIPAPPLSKVPLQQNFQDNQFQGKWYVVGLAGNAILREDKDPQKMYATIYELKEDKSYNVTSVLFRKKKCDYWIRTFVPGCQPGEFTLGNIKSYPGLTSYLVRVVSTNYNQHAMVFFKKVSQNREYFKITLYGRTKELTSELKENFIRFSQSLGLPENHIVFPVPIDQCIDG | 0.17 |
| K1 NGAL mutant (ligand) QDSTSDLIPAPPLSSVPLQQNFQDNQFQGKWYVVGLAGNAILREDEDPQKMYATIYELQEDKSYNVTSVLFRKKKCDYWIRTFVPGCQPGEFTLGNIQSYPGLTSYLVRVVSTNYNQFAMVFFKKVSQNQEYFKITLYGRTKELTSELQENFIRFSKSLGLPENNIVFPVPIDQCIDG | 1.9 |

Source: patent publication US20170190751A1 (published 2017)
